Consider four molecules from article PMC6026696, “A broader active site in Pyrococcus horikoshii CoA disulfide reductase accommodates larger substrates and reveals evidence of subunit asymmetry” (FEBS Open Bio, 2018).

Data set [1] addresses T1, Pyrococcus horikoshii coenzyme A-disulfide reductase (phCoADR) (Pyrococcus horikoshii, UniProt O58308, C48S/Y65A/Y66A/P67G/H367G).
T1 construct: gene PH0572; recombinant in E. coli BL21(DE3); wild type from pET24d; quad mutant codon-optimized gene in pET21b+ with C-terminal His tag; FAD-containing homodimer
Put plainly: anaerobic NADH titration, UV-visible spectra. In kind it is biochemical. The conditions noted are these: 50 mM potassium phosphate, pH 7.5, room temperature.

The target in data set [2] is T2, Pyrococcus horikoshii coenzyme A-disulfide reductase (phCoADR) (Pyrococcus horikoshii, UniProt O58308, Y65A/Y66A/P67G/H367G).
T2 construct: gene PH0572; recombinant in E. coli BL21(DE3); wild type from pET24d; quad mutant codon-optimized gene in pET21b+ with C-terminal His tag; FAD-containing homodimer
T2 sequence (O58308 whole entry Y65A/Y66A/P67G/H367G): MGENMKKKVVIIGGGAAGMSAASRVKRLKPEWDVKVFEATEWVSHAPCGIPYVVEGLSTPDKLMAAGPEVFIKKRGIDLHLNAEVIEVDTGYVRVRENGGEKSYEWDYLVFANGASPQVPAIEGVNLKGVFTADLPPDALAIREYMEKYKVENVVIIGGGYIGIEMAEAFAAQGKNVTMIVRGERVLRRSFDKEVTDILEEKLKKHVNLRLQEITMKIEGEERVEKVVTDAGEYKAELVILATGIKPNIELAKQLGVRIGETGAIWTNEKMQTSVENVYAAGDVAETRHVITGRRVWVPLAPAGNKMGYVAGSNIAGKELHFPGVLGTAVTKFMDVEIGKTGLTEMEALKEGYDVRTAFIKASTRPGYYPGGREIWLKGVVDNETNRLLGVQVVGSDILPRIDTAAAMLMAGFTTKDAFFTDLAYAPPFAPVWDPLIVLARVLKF
Kind of data set: X-ray crystal structure, […] Å. In kind it is binding. The conditions noted are these: tightly bound CoA in substrate channel; mixed disulfide with C48 in oxidized enzyme (covalent).

Substrate in data set [3]: CC(C)(COP(=O)(O)OP(=O)(O)OC[C@H]1O[C@@H](n2cnc3c(N)ncnc32)[C@H](O)[C@@H]1OP(=O)(O)O)[C@@H](O)C(=O)NCCC(=O)NCCSSCCNC(=O)CCNC(=O)[C@H](O)C(C)(C)COP(=O)(O)OP(=O)(O)OC[C@H]1O[C@@H](n2cnc3c(N)ncnc32)[C@H](O)[C@@H]1OP(=O)(O)O
Put plainly: purified protein. The settings on record: 100 μM NADPH, 75 °C, 50 mM potassium phosphate, pH 7.5. In kind it is biochemical, Pyrococcus horikoshii.

Substrate in data set [4]: NC(=O)C1=CN([C@@H]2O[C@H](COP(=O)(O)OP(=O)(O)OC[C@H]3O[C@@H](n4cnc5c(N)ncnc54)[C@H](OP(=O)(O)O)[C@@H]3O)[C@@H](O)[C@H]2O)C=CC1
Put plainly: purified protein. In kind it is biochemical, Pyrococcus horikoshii. The settings on record: 100 μM CoA disulfide, 75 °C, 50 mM potassium phosphate, pH 7.5.

Substrate in data set [5]: NC(=O)C1=CN([C@@H]2O[C@H](COP(=O)(O)OP(=O)(O)OC[C@H]3O[C@@H](n4cnc5c(N)ncnc54)[C@H](O)[C@@H]3O)[C@@H](O)[C@H]2O)C=CC1
Put plainly: purified protein. The conditions noted are these: 100 μM CoA disulfide, 75 °C, 50 mM potassium phosphate, pH 7.5. In kind it is biochemical, Pyrococcus horikoshii.

Where a chain is given by its changes, count along the chain named. Names and notes keep the numbering of the source.

T1 sequence (O58308 whole entry C48S/Y65A/Y66A/P67G/H367G): as the sequence (O58308 whole entry Y65A/Y66A/P67G/H367G) above, with C48S counted along it

In the case of `NC(=O)C1=CN([C@@H]2O[C@H](COP(=O)(O)OP(=O)(O)OC[C@H]3O[C@@H](n4cnc5c(N)ncnc54)[C@H](O)[C@@H]3O)[C@@H](O)[C@H]2O)C=CC1` [NADH], in data set [1], the “anaerobic NADH titration, UV-visible spectra” value is given as “Anaerobic titration of the quad‐C48S mutant showed immediate reduction of FAD”.

With `CC(C)(COP(=O)(O)OP(=O)(O)OC[C@H]1O[C@@H](n2cnc3c(N)ncnc32)[C@H](O)[C@@H]1OP(=O)(O)O)[C@@H](O)C(=O)NCCC(=O)NCCS` [CoA], in data set [2], the “X-ray crystal structure, 3.6 Å” value is reported as “CoA is depicted as sticks where carbon is green, nitrogen blue, oxygen red”.

B1: Pyrococcus horikoshii coenzyme A-disulfide reductase (phCoADR) (Pyrococcus horikoshii OT3) (protein)
chain: MGENMKKKVVIIGGGAAGMSAASRVKRLKPEWDVKVFEATEWVSHAPCGIPYVVEGLSTPDKLMYYPPEVFIKKRGIDLHLNAEVIEVDTGYVRVRENGGEKSYEWDYLVFANGASPQVPAIEGVNLKGVFTADLPPDALAIREYMEKYKVENVVIIGGGYIGIEMAEAFAAQGKNVTMIVRGERVLRRSFDKEVTDILEEKLKKHVNLRLQEITMKIEGEERVEKVVTDAGEYKAELVILATGIKPNIELAKQLGVRIGETGAIWTNEKMQTSVENVYAAGDVAETRHVITGRRVWVPLAPAGNKMGYVAGSNIAGKELHFPGVLGTAVTKFMDVEIGKTGLTEMEALKEGYDVRTAFIKASTRPHYYPGGREIWLKGVVDNETNRLLGVQVVGSDILPRIDTAAAMLMAGFTTKDAFFTDLAYAPPFAPVWDPLIVLARVLKF
notes: recombinant in E. coli BL21(DE3); wild type from pET24d; quad mutant codon-optimized gene in pET21b+ with C-terminal His tag; FAD-containing homodimer
A word on the Km: it is the substrate concentration at which the rate is half of its maximum. For orientation: kcat means the maximal rate divided by the concentration of active sites. On to B1, for which the Km in “purified protein [3]” is 52 ± 1 µM; in the data set “purified protein [5]”, 73 ± 12 µM. For the same molecule, the kcat in the data set “purified protein [3]” was 4.4 ± 1.3 s⁻¹; in “purified protein [4]”, 5.8 ± 0.2 s⁻¹; in “purified protein [5]” it was 2.3 ± 0.3 s⁻¹.

B2: Pyrococcus horikoshii coenzyme A-disulfide reductase (phCoADR) (Pyrococcus horikoshii OT3; H367G/P67G/Y65A/Y66A) (protein)
chain: B1 chain with Y65A, Y66A, P67G, H367G
notes: as for B1
As for B2, the Michaelis-Menten constant (Km) turned out to be 57.0 ± 6.4 µM in “purified protein [3]”, 16.4 ± 4.9 µM in “purified protein [4]” and 75 ± 6 µM in the data set “purified protein [5]”. Also, the kcat is 18.8 ± 2.8 s⁻¹ in the data set “purified protein [3]”, 21.6 ± 2.3 s⁻¹ in “purified protein [4]” and 8.1 ± 1.4 s⁻¹ in “purified protein [5]”.
